Measured values: patent US10266547B2, “Thieno[2,3-e]indole derivatives as new antitumor agents” (NERVIANO MEDICAL SCIENCES S.R.L., priority 2013, dated 2019)

Target: cathepsin B (Homo sapiens, UniProt P07858)
Assay: Release of a drug moiety from a conjugate in presence of cathepsin
Format: in vitro ADME
Conditions: 0.2 units cathepsin B, sodium acetate buffer pH 5.5, 1 mM Cys, 2 hours at 40° C., HPLC ESI-MS
Method: As an example, that is not intended to limit the scope of the invention, the release of a compound of formula (II) from the conjugate was performed in presence of cathepsin as reported below.
The conjugate A1 was incubated with 0.2 units of cathepsin B in sodium acetate buffer pH 5.5 and 1 mM Cys for 2 hours at 40° C.

## Cc1cc2c(OC(=O)N(C)CCN(C)C(=O)OCc3ccc(NC(=O)[C@H](CCCNC(N)=O)NC(=O)[C@@H](NC(=O)CCCCCN4C(=O)CC(SC[C@H](N)C(=O)O)C4=O)C(C)C)cc3)cc3c(c2s1)[C@H](CCl)CN3C(=O)c1cc2cc(OCCN3CCCC3)ccc2[nH]1 (stereo partly shown) [A1]
  release of the compound of formula (II) from the conjugate (breaking of the Z peptidic linker): Disappearance of the conjugate A1 and release of the corresponding compound of formula (II)
